Tests used:
[1] = system: fluorescent tripeptidyl substrate PRR, MeOC-GGG-PRR-GG-DPA-KK-NH2
[2] = target: albumin in human plasma / human serum (UniProt P02768)
[3] = system: recombinant pro-fruit bromelain
[4] = system: recombinant pro-stem bromelain
[5] = system: T1, FVR-7-amino-4-methylcoumarin
T1 sequence: FVR

Sequence of UniProt P02768 (P02768 whole entry, looked up): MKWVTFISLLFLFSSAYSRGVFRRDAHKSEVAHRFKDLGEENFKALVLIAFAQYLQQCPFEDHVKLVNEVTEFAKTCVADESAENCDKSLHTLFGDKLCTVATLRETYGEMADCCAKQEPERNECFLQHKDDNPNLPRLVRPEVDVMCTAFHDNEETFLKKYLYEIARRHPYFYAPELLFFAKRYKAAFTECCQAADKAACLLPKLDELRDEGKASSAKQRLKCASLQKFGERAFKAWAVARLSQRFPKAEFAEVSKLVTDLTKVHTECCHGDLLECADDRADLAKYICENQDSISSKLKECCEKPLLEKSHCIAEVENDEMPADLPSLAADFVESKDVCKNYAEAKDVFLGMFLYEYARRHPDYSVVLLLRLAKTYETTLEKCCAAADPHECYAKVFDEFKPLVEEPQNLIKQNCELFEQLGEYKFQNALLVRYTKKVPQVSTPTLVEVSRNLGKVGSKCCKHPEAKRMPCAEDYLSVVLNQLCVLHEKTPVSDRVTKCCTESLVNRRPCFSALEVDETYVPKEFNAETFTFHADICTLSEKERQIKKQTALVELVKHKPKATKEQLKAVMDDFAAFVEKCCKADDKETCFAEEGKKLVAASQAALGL

Substance: activated stem bromelain
- initial rate of proteolysis of PRR (fluorescence) [1]: about 0.024 µg PRR molecules per min

Substance: active ananain (recombinant, obtained by activation of pro-ananain)
- proteolysis of human plasma/serum proteins, SDS-PAGE [2]: The clear reduction of albumin in sample A, C and D in the presence of ananain indicates that albumin is a protein substrate for ananain
- cleavage of pro-FB on an ananain-immobilized column, SDS-PAGE [3]: The collected activated FB was subject to SDS-PAGE analysis and was confirmed to be fully activated
- cleavage of pro-SB by active ananain, SDS-PAGE time course [4]: mixing active ananain and pro-SB at a weight ratio of 1:25 led to a complete cleavage of pro-SB within 10 min, resulting in two fragments of 24 and 12 kDa
- cleavage of pro-SB on an ananain-immobilized column, SDS-PAGE [4]: The collected activated SB was subject to SDS-PAGE analysis and was confirmed to be fully activated

Substance: recombinant pro-fruit bromelain
- proteolysis of FVR-AMC (fluorescence) [5]: pro-FB did not cleave FVR-AMC at all

Substance: recombinant pro-stem bromelain
- initial rate of proteolysis of PRR (fluorescence) [1]: the cleavage of PRR by 100 nM Pro-SB was negligible
